The results in this text go back to patent US20260151494A1 (ARO BIOTHERAPEUTICS, published 2026).

Assay [1] has as its target T1, human CD71 extracellular domain (CD71-ECD) (human, UniProt P02786 89-760).
T1 construct: also called hCD71; human CD71-ECD
Nature of the assay: primary ELISA. Note: test concentration or dose not given here. On the technique in general: An ELISA detects its analyte on a solid surface through an enzyme-linked reagent.

Assay [2] deals with T1, human CD71 extracellular domain …. The assay can be described thus: primary ELISA, RLU ratio to HSA.

T1 sequence (P02786 89-760): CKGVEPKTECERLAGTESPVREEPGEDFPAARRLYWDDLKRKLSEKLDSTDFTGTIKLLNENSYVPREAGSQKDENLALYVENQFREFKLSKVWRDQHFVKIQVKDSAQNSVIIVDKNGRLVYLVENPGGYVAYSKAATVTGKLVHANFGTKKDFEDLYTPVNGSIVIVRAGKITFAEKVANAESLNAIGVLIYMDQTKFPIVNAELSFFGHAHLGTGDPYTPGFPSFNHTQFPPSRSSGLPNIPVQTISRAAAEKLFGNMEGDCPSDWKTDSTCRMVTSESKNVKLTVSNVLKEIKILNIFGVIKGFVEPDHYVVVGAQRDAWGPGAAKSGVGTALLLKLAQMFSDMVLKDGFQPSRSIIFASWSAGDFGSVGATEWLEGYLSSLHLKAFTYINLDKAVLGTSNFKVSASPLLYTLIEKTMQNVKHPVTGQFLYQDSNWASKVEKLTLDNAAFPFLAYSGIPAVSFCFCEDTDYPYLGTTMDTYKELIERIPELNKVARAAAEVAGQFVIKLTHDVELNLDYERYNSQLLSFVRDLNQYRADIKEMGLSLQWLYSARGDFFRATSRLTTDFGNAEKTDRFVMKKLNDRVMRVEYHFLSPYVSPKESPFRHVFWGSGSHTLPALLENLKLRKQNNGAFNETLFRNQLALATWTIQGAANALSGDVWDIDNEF

B1: CD71-binding FN3 domain SEQ ID NO: 240 (designed binder)
chain: MSLPAPKNLVVSRVTEDSARLSWTAPDAAFDSFHIWYFEKANEGEAIPLVVPGSERSYDLTGLKPGTEYDVDIGGVKGGAWSIPLGARFTT
Molecule B1 displayed an RLU in assay [1] of 3.72e+06 RLU. Besides, the “hCD71:HSA” value in assay [2] came out at 39.

B2: CD71-binding FN3 domain SEQ ID NO: 273 (designed binder)
chain: MLPAPKNLVVSRVTEDSARLSWTAPDAAFDSFEISYWEHTFNGEAIILFVPGSERSYDLTGLKPGTEYYVTIGGVKGGAWSPPLWAEFTT
B2: in assay [1], the RLU came to 3.78e+06 RLU. In addition, the “hCD71:HSA” value in assay [2] was found to be 664.

B3: CD71-binding FN3 domain SEQ ID NO: 253 (designed binder)
chain: MSLPAPKNLVVSRVTEDSARLSWTAPDAAFDSFDINYWENESGGEAIALFVPGSERSYDLTGLKPGTEYWVSIGGVKGGRFSEPLYARFTT
The molecule B3 came in with an RLU in assay [1] of 3.53e+06 RLU. In addition, in assay [2], the “hCD71:HSA” value was found to be 324.

B4: CD71-binding FN3 domain SEQ ID NO: 314 (designed binder)
chain: MGSLPAPKNLVVSRVTEDSARLSWTAPDAAFDSFEIGYFENLYLGEAIVLTVPGSERSYDLTGLKPGTEYWVQIGGVKGGNWSAPLSAIFTT
B4 gave an RLU in assay [1] of 3.15e+06 RLU. For the same molecule, the “hCD71:HSA” value in assay [2] worked out at 256.

B5: CD71-binding FN3 domain SEQ ID NO: 327 (designed binder)
chain: MSLPAPKNLVVSRVTEDSARLSWTAPDAAFDSFEIGYWENAYKGEAIVLTVPGSERSYDLTGLKPGTEYWVQIGGVKGGNWSAPLSAIFTT
B5: the RLU in assay [1] was 2.66e+06 RLU. Moreover, in assay [2], the “hCD71:HSA” value was found to be 143.

B6: CD71-binding FN3 domain SEQ ID NO: 330 (designed binder)
chain: MSLPAPKNLVVSRVTEDSARLSWTAPDAAFDSFEIGYFENLYLGEAIVLTVPGSERSYDLTGLKPGTEYWVQIGGVKGGNWSAPLSAIVTT
In the case of B6, the RLU in assay [1] was determined as 2.54e+06 RLU. For the same molecule, the “hCD71:HSA” value in assay [2] stood at 54.

B7: CD71-binding FN3 domain SEQ ID NO: 328 (designed binder)
chain: MSLPAPKNLVVSRVTEDSARLSWTAPDAAFDSFEIGYFGNLYLGEAIVLTVPGSERSYDLTGLKPGTEYWVQIGGVKGGNWSAPLSAIFTT
B7 yielded an RLU in assay [1] of 2.18e+06 RLU. Further, the “hCD71:HSA” value in assay [2] was 25.

B8: CD71-binding FN3 domain SEQ ID NO: 329 (designed binder)
chain: MSLPAPKNLVVSRVTEDSARLSWTAPDAAFDSFDIGYFEATYYGEAIVLTVPGSERSYDLTGLKPGTEYRVWIGGVKGGYYSNPLSAIFTT
On to B8, for which the RLU in assay [1] amounted to 3.28e+06 RLU. Also, in assay [2], the “hCD71:HSA” value stood at 90.

B9: CD71-binding FN3 domain SEQ ID NO: 310 (designed binder)
chain: MSLPAPKNLVVSRVTEDSARLSWTAPDAAFDSFEIDYGEYSQAGEAIGLLVPGSERSYDLTGLKPGTEYAVWIGGVKGGFFSTPLEADFTT
With B9, in assay [1], the RLU came out at 2.22e+06 RLU. Moreover, in assay [2], the “hCD71:HSA” value amounted to 77.

B10: CD71-binding FN3 domain SEQ ID NO: 241 (designed binder)
chain: MSLPAPKNLVVSRVTEDSARLSWTAPDAAFDSFMIAYDEFIVWGEAVVLTVPGSERSYDLTGLKPGTEYLVEILGVKGGTISGPLSAIFTT
In the case of B10, the RLU in assay [1] was 3.4e+06 RLU. In assay [2], the “hCD71:HSA” value turned out to be 178.

B11: CD71-binding FN3 domain SEQ ID NO: 303 (designed binder)
chain: MSLPAPKNLVVSRVTEDSARLSWTAPDAAFDSFWIEYWEGWKSGEAIVLTVPGSERSYDLTGLKPGTEYRVHIWGVKGGIVSWPLSAIFTT
As to B11, in assay [1], the RLU amounted to 1.86e+06 RLU. For the same molecule, the “hCD71:HSA” value in assay [2] came out at 212.

B12: CD71-binding FN3 domain SEQ ID NO: 290 (designed binder)
chain: MSLPAPKNLVVSRVTEDSARLSWTAPDAAFDSFFIGYLEPQPPGEAIHLYVPGSERSYDLTGLKPGTEYNVTIQGVKGGFPSEPLVATFTT
B12 had an RLU in assay [1] of 5.98e+06 RLU. Moreover, the “hCD71:HSA” value in assay [2] worked out at 138.

B13: CD71-binding FN3 domain SEQ ID NO: 270 (designed binder)
chain: MSLPAPKNLVVSRVTEDSARLSWTAPDAAFDSFFIGYLEPQPPGEAIHLYVPGSERSYDLTGLKPGTEYNVTIQGVKGGFPSEPLIANSTT
Regarding B13, in assay [1], the RLU was found to be 5.5e+06 RLU. Also, the “hCD71:HSA” value in assay [2] is 65.

B14: CD71-binding FN3 domain SEQ ID NO: 293 (designed binder)
chain: MSLPAPKNLVVSRVTEDSARLSWTAPDAAFDSFFIGYLEPQPPGEAIDLYVPGSERSYDLTGLKPGTEYNVTIQGVKGGFPSHPLVATFTT
In assay [1], B14 displayed an RLU of 6.23e+06 RLU. For the same molecule, in assay [2], the “hCD71:HSA” value is 561.

B15: CD71-binding FN3 domain SEQ ID NO: 294 (designed binder)
chain: MSLPAPKNLVVSRVTEDSARLSWTAPDAAFDSFFIGYLEPQPLGEAIHLFVPGSERSYDLTGLKPGTEYNVTIQGVKGGFPSEPLIASFTT
For the molecule B15, the RLU in assay [1] came to 6.48e+06 RLU. The “hCD71:HSA” value in assay [2] worked out at 215.

B16: CD71-binding FN3 domain SEQ ID NO: 333 (designed binder)
chain: MSLPAPENLVVSRVTEDSARLSWTAPDAAFDSFFIGYLEPQPPGEAIALYVPGSERSYDLTGLKPGTEYNVTIQGVKGGFPSLPLVATFTT
In assay [1], B16 gave an RLU of 5.32e+06 RLU. The “hCD71:HSA” value in assay [2] stood at 146.

B17: CD71-binding FN3 domain SEQ ID NO: 234 (designed binder)
chain: MSLPAPKNLVVSRVTEDSARLSWTAPDAAFDSFFIGYLEPQPPGEAIALYVPGSERSYDLTGLKPGTEYNVTIQGVKGGFPSEPLVAHFTT
As for B17, in assay [1], the RLU turned out to be 6.42e+06 RLU. Besides, in assay [2], the “hCD71:HSA” value turned out to be 683.

B18: CD71-binding FN3 domain SEQ ID NO: 295 (designed binder)
chain: MSLPAPKNLVVSRVTEDSARLSWTAPDAAFDSFFIGYLEPQPPGEAIDLYVPGSERSYDLTGLKPGTEYNVTIQGVKGGFPSEPLVATFTT
B18 registered an RLU in assay [1] of 6.2e+06 RLU. Besides, in assay [2], the “hCD71:HSA” value is 438.

B19: CD71-binding FN3 domain SEQ ID NO: 266 (designed binder)
chain: MSLPAPKNLVVSRVTEDSARLSWTAPDAAFDSFFIGYLEPQPPGEAIYLLVPGSERSYDLTGLKPGTEYNVTIQGVKGGFPSLPLVATFTT
On to B19, for which the RLU in assay [1] is 5.41e+06 RLU. In addition, the “hCD71:HSA” value in assay [2] was found to be 150.

B20: CD71-binding FN3 domain SEQ ID NO: 262 (designed binder)
chain: MSLPAPKNLVVSRVTEDSARLSWTAPDAAFDSFFIGYLEPQPPGEVIHLFVPGSERSYDLTGLKPGTEYNVTIQGVKGGFPSDPLVASFTT
B20: the RLU in assay [1] was found to be 6.78e+06 RLU. In assay [2], the “hCD71:HSA” value was 529.

B21: CD71-binding FN3 domain SEQ ID NO: 331 (designed binder)
chain: MSLPAPKNLVVSRVTEDSARLSWTAPDAAFDSFFIGYLEPQPPGEAIHLYVPGSERSYDLTGLKPGTEYNVTIQGVKVGFPSEPLIANFTT
On to B21, for which the RLU in assay [1] turned out to be 4.66e+06 RLU. In addition, in assay [2], the “hCD71:HSA” value is 524.

B22: CD71-binding FN3 domain SEQ ID NO: 265 (designed binder)
chain: MSLPAPKNLVVSRVTEDSARLSWTAPDAAFDSFFIGYLEPQPPGEAISLYVPGSERSYDLTGLKPGTEYNVTIQGVKGGFPSDPLVAHFTT
In assay [1], B22 showed an RLU of 5.66e+06 RLU. Also, the “hCD71:HSA” value in assay [2] was 409.

B23: CD71-binding FN3 domain SEQ ID NO: 281 (designed binder)
chain: MSLPAPKNLVVSRVTEDSARLSWTAPDAAFDSFFIGYLEPQPPGEAIALYVPGSERSYDLTGLKPGTEYNVTIQGVKGGFPSEPLIANFTT
B23: the RLU in assay [1] was found to be 6.37e+06 RLU. In addition, the “hCD71:HSA” value in assay [2] was 380.

B24: CD71-binding FN3 domain SEQ ID NO: 279 (designed binder)
chain: MSLPAPKNLVVSRVTEDSARLSWTAPDAAFDSFFIGYLEPQPPGEAIHLYVPGSERSYDLTGLKPGTEYNVTIQGVKGGNWSAPLSAIFTT
In assay [1], B24 showed an RLU of 3.66e+06 RLU. The “hCD71:HSA” value in assay [2] was found to be 449.

B25: CD71-binding FN3 domain SEQ ID NO: 258 (designed binder)
chain: MSLPAPKNLVVSRVTEDSARLSWTAPDAAFDSFFIGYLEPQPPGEAIVLGVPGSERSYDLTGLKPGTEYNVTIQGVKGGFPSDPLVASFTT
Regarding B25, the RLU in assay [1] was 4.77e+06 RLU. Also, the “hCD71:HSA” value in assay [2] was 212.

B26: CD71-binding FN3 domain SEQ ID NO: 243 (designed binder)
chain: MSLPAPKNLVVSRVTEDSARLSWTAPDAAFDSFFIGYLEPQPPGEAIHLYVPGSERSYDLTGLKPGTEYNVTIQGVKGGEWSAPLSAIFTT
In turn, B26 yielded an RLU in assay [1] of 2.78e+06 RLU. Further, the “hCD71:HSA” value in assay [2] was 355.

B27: CD71-binding FN3 domain SEQ ID NO: 264 (designed binder)
chain: MSLPAPKNLVVSRVTEDSARLSWTAPDAAFDSFFIGYLEPQPPGEAIALYVPGSERSYDLTGLKPGTEYNVTIQGVKGGFPSEPLVVHFTT
B27: in assay [1], the RLU was determined as 5.77e+06 RLU. Also, the “hCD71:HSA” value in assay [2] was 508.

B28: CD71-binding FN3 domain SEQ ID NO: 259 (designed binder)
chain: MSLPAPKNLVVSRVTEDSARLSWTAPDAAFDSFYIAYAEPRPDGEAILLEVPGSERSYDLTGLKPGTEYSVLIHGVKGGLLSSPLSATFTT
As for B28, the RLU in assay [1] turned out to be 3.77e+06 RLU. Further, the “hCD71:HSA” value in assay [2] was 300.

B29: CD71-binding FN3 domain SEQ ID NO: 261 (designed binder)
chain: MSLPAPKNLVVSRVTEDSARLSWTAPDAAFDSFYIAYAEPRPDGEAILLWVPGSERSYDLTGLKPGTEYSVLIHGVKGGLLSSPLHAYFTT
In assay [1], B29 yielded an RLU of 3.43e+06 RLU. In addition, the “hCD71:HSA” value in assay [2] is 535.

B30: CD71-binding FN3 domain SEQ ID NO: 332 (designed binder)
chain: MSLPAPKNLVVSRVTEDSARLSWTAPDAAFDSFEIGYWEGPGGGEAIILVVPGSERSYDLTGLKPGTEYYVQIGGVKGGDWSTPLWATFTT
In assay [1], B30 displayed an RLU of 1.7e+06 RLU. For the same molecule, in assay [2], the “hCD71:HSA” value was found to be 131.

B31: CD71-binding FN3 domain SEQ ID NO: 245 (designed binder)
chain: MSLPAPKNLVVSRVTEDSARLSWTAPDAAFDSFEISYWEHTFNGEAIILFVPGSERSYDLTGLKPGTEYYVTIGGVKGGAWSPPLWAHFTT
In turn, B31 displayed an RLU in assay [1] of 3.75e+06 RLU. Moreover, the “hCD71:HSA” value in assay [2] is 377.

B32: CD71-binding FN3 domain SEQ ID NO: 267 (designed binder)
chain: MSLPAPKNLVVSRVTEDSARLSWTAPDAAFDSFEISYWEHTFNGEAIILFVPGSERSYDLTGLKPGTEYYVTIGGVKGGAWSPPLWAEFTT
As to B32, the RLU in assay [1] came out at 3.12e+06 RLU. In addition, the “hCD71:HSA” value in assay [2] worked out at 92.
